Experiments:
Assay in all cases: cell-based or functional assay
[1] = target: HIV-1 envelope of pseudovirus 0815.v3.c3 (HIV-1)
[2] = target: HIV-1 Env of pseudovirus 3817.v2.c59 (HIV-1)
[3] = target: HIV-1 envelope of pseudovirus 62357_14_03_4589 (HIV-1)
[4] = target: HIV-1 Env of pseudovirus 3415.v1.c1 (HIV-1)
[5] = target: HIV-1 Env of pseudovirus 3103.v3.c10 (HIV-1)
[6] = target: HIV-1 Env of pseudovirus ZM249M.PL1 (HIV-1)
[7] = target: HIV-1 Env of pseudovirus ZM135M.PL10a (HIV-1)
[8] = target: HIV-1 Env of pseudovirus T250-4 (HIV-1)
[9] = target: HIV-1 Env of pseudovirus T257-31 (HIV-1)
[10] = target: HIV-1 envelope of pseudovirus X2088_c9 (HIV-1)
[11] = target: HIV-1 Env of pseudovirus Q23.17 (HIV-1)
[12] = target: HIV-1 envelope of pseudovirus C1080.c03 (HIV-1)
[13] = target: HIV-1 Env of pseudovirus Ce0682_E4 (HIV-1)
[14] = target: HIV-1 envelope of pseudovirus Du172.17 (HIV-1)
[15] = target: HIV-1 Env of pseudovirus ZM247v1(Rev-) (HIV-1)
[16] = target: HIV-1 envelope of pseudovirus CNE19 (HIV-1)
[17] = target: HIV-1 envelope of pseudovirus THRO4156.18 (HIV-1)
[18] = target: HIV-1 Env of pseudovirus CAP45.2.00.G3 (HIV-1)
[19] = target: HIV-1 Env of pseudovirus 211-9 (HIV-1)
[20] = target: HIV-1 envelope of pseudovirus Du422.1 (HIV-1)
[21] = target: HIV-1 envelope of pseudovirus X2131_C1_85 (HIV-1)
[22] = target: HIV-1 Env of pseudovirus P1981_C5_3 (HIV-1)
[23] = target: HIV-1 envelope of pseudovirus BJOX015000.11.5 (HIV-1)
[24] = target: HIV-1 envelope of pseudovirus R1166.c01 (HIV-1)
[25] = target: HIV-1 envelope of pseudovirus 9004SS_A3_4 (HIV-1)
[26] = target: HIV-1 Env of pseudovirus HIV-001428-2.42 (HIV-1)
[27] = target: HIV-1 envelope glycoprotein of pseudovirus A07412m1.vrv12 (clade D) (HIV-1)
[28] = target: HIV-1 envelope glycoprotein of pseudovirus YU.2 (clade B) (HIV-1) (UniProt P35961)
[29] = target: HIV-1 envelope of pseudovirus ZM233M.PB6 (HIV-1)
[30] = target: HIV-1 envelope glycoprotein of pseudovirus 0260.v5.c36 (clade A) (HIV-1)
[31] = target: HIV-1 envelope glycoprotein of pseudovirus 3817.v2.c59 (clade CD) (HIV-1)
[32] = target: HIV-1 envelope glycoprotein of pseudovirus ZM214M.PL15 (clade C) (HIV-1)
[33] = target: HIV-1 envelope glycoprotein of pseudovirus 211-9 (clade CRF02_AG) (HIV-1)
[34] = target: HIV-1 envelope glycoprotein of pseudovirus Ce1172_H1 (clade C (T/F)) (HIV-1)
[35] = target: HIV-1 envelope glycoprotein of pseudovirus 6952.v1.c20 (clade CD) (HIV-1)
[36] = target: HIV-1 envelope glycoprotein of pseudovirus Ce1086_B2 (clade C (T/F)) (HIV-1)
[37] = target: HIV-1 envelope glycoprotein of pseudovirus HIV-16845-2.22 (clade C) (HIV-1)
[38] = target: HIV-1 envelope glycoprotein of pseudovirus CAP45.2.00.G3 (clade C) (HIV-1)
[39] = target: HIV-1 envelope glycoprotein of pseudovirus CNE52 (clade BC) (HIV-1)
[40] = target: HIV-1 envelope glycoprotein of pseudovirus CNE17 (clade BC) (HIV-1)
[41] = target: HIV-1 envelope glycoprotein of pseudovirus T278-50 (clade CRF02 AG) (HIV-1)
[42] = target: HIV-1 envelope glycoprotein of pseudovirus T251-18 (clade CRF02_AG) (HIV-1)
[43] = target: HIV-1 envelope glycoprotein of pseudovirus ZM233M.PB6 (clade C) (HIV-1)
[44] = target: HIV-1 envelope glycoprotein of pseudovirus ZM135M.PL10a (clade C) (HIV-1)
[45] = target: HIV-1 envelope glycoprotein of pseudovirus 928-28 (clade CRF02_AG) (HIV-1)
[46] = target: HIV-1 envelope glycoprotein of pseudovirus 235-47 (clade CRF02_AG) (HIV-1)
[47] = target: HIV-1 envelope glycoprotein of pseudovirus 1054_07_TC4_1499 (clade B (T/F)) (HIV-1)

Chain of 10-996 (antibody) (VH): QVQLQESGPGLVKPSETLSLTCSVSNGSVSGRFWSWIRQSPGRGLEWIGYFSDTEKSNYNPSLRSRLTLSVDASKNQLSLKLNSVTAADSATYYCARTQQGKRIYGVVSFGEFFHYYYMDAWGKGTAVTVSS
Chain of 10-996 (antibody) (VL): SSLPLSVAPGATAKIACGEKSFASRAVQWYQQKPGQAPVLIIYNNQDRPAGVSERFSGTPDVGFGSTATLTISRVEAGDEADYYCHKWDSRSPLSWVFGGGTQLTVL
Chain of 10-1074 (antibody) (VH): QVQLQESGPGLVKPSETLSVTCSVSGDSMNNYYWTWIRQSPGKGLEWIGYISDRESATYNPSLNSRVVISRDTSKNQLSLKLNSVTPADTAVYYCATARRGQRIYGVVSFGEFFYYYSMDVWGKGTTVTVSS
Chain of 10-1074 (antibody) (V domain): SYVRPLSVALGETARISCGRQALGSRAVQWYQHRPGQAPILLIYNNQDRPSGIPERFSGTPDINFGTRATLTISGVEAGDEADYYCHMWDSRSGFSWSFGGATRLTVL
Chain of HIV-1 envelope glycoprotein of pseudovirus YU.2 (clade B) (HIV-1) (P35961 32-843): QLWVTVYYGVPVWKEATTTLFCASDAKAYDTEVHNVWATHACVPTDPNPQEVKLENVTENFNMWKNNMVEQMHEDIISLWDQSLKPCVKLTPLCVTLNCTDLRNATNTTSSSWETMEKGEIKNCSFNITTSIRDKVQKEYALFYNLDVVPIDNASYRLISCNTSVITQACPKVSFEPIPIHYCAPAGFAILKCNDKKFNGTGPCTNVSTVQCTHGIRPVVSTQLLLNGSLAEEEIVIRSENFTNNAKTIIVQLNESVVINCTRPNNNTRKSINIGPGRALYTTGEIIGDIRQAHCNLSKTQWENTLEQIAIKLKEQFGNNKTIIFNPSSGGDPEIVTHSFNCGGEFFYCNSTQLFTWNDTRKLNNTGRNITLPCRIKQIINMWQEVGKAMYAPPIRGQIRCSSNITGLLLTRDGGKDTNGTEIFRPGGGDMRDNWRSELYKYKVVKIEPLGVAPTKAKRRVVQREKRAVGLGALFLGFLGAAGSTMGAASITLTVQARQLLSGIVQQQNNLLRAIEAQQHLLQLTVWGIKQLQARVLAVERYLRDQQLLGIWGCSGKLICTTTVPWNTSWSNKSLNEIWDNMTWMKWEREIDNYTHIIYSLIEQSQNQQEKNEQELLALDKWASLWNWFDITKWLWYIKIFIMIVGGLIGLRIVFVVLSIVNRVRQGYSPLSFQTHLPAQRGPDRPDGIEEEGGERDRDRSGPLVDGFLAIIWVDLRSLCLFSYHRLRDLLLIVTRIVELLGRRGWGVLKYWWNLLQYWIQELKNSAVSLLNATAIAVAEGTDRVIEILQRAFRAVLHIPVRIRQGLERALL

10-996 (antibody)
IC50 (TZM-bl neutralization) [1]: 0.061 µg/mL | IC80 (TZM-bl neutralization) [2]: 34.6 µg/mL | IC50 (TZM-bl neutralization) [3]: 29.3 µg/mL | IC80 (TZM-bl neutralization) [4]: > 50 µg/mL | IC80 (TZM-bl neutralization) [5]: 0.15 µg/mL | IC80 (TZM-bl neutralization) [6]: > 50 µg/mL | IC80 (TZM-bl neutralization) [7]: 0.553 µg/mL | IC80 (TZM-bl neutralization) [8]: 0.005 µg/mL | IC80 (TZM-bl neutralization) [9]: > 50 µg/mL | IC50 (TZM-bl neutralization) [10]: 0.002 µg/mL | IC80 (TZM-bl neutralization) [11]: 0.03 µg/mL | IC50 (TZM-bl neutralization) [12]: > 50 µg/mL | IC80 (TZM-bl neutralization) [13]: > 50 µg/mL | IC50 (TZM-bl neutralization) [14]: 0.173 µg/mL | IC80 (TZM-bl neutralization) [15]: 0.252 µg/mL | IC50 (TZM-bl neutralization) [16]: 3.45 µg/mL | IC50 (TZM-bl neutralization) [17]: > 50 µg/mL | IC80 (TZM-bl neutralization) [18]: > 50 µg/mL | IC80 (TZM-bl neutralization) [19]: 3.85 µg/mL | IC50 (TZM-bl neutralization) [20]: 0.056 µg/mL | IC50 (TZM-bl neutralization) [21]: 0.019 µg/mL | IC80 (TZM-bl neutralization) [22]: 0.018 µg/mL | IC50 (TZM-bl neutralization) [23]: > 50 µg/mL | IC50 (TZM-bl neutralization) [24]: > 50 µg/mL | IC50 (TZM-bl neutralization) [25]: 0.012 µg/mL | IC80 (TZM-bl neutralization) [26]: 0.204 µg/mL

PGT121 (antibody)
IC80 (TZM-bl neutralization) [2]: > 50 µg/mL | IC50 in the TZM-bl neutralization assay [27]: 0.406 µg/mL | IC50 in the TZM-bl neutralization assay [28]: 0.356 µg/mL | IC50 (TZM-bl neutralization) [29]: 1.45 µg/mL | IC50 in the TZM-bl neutralization assay [30]: 0.152 µg/mL | IC50 (TZM-bl neutralization) [3]: 1.04 µg/mL | IC50 in the TZM-bl neutralization assay [31]: > 50 µg/mL | IC80 (TZM-bl neutralization) [4]: > 50 µg/mL | IC80 (TZM-bl neutralization) [5]: 0.11 µg/mL | IC50 in the TZM-bl neutralization assay [32]: 3.15 µg/mL | IC50 in the TZM-bl neutralization assay [33]: 8.84 µg/mL | IC80 (TZM-bl neutralization) [6]: > 50 µg/mL | IC80 (TZM-bl neutralization) [7]: 5.88 µg/mL | IC80 (TZM-bl neutralization) [9]: > 50 µg/mL | IC50 in the TZM-bl neutralization assay [34]: 0.088 µg/mL | IC50 in the TZM-bl neutralization assay [35]: 0.605 µg/mL | IC50 in the TZM-bl neutralization assay [36]: 0.006 µg/mL | IC50 in the TZM-bl neutralization assay [37]: > 50 µg/mL | IC80 (TZM-bl neutralization) [11]: 0.031 µg/mL | IC50 (TZM-bl neutralization) [12]: > 50 µg/mL | IC80 (TZM-bl neutralization) [13]: > 50 µg/mL | IC50 (TZM-bl neutralization) [14]: 0.115 µg/mL | IC50 in the TZM-bl neutralization assay [38]: 6.54 µg/mL | IC50 in the TZM-bl neutralization assay [39]: 32.9 µg/mL | IC80 (TZM-bl neutralization) [15]: 0.126 µg/mL | IC50 in the TZM-bl neutralization assay [40]: > 50 µg/mL | IC50 in the TZM-bl neutralization assay [41]: > 50 µg/mL | IC50 in the TZM-bl neutralization assay [42]: > 50 µg/mL | IC50 (TZM-bl neutralization) [17]: > 50 µg/mL | IC80 (TZM-bl neutralization) [18]: 6.54 µg/mL | IC50 in the TZM-bl neutralization assay [43]: 8.98 µg/mL | IC80 (TZM-bl neutralization) [19]: 8.84 µg/mL | IC50 (TZM-bl neutralization) [23]: > 50 µg/mL | IC50 in the TZM-bl neutralization assay [44]: 5.88 µg/mL | IC50 in the TZM-bl neutralization assay [45]: > 50 µg/mL | IC50 (TZM-bl neutralization) [24]: > 50 µg/mL | IC50 (TZM-bl neutralization) [25]: 0.008 µg/mL | IC80 (TZM-bl neutralization) [26]: 0.156 µg/mL | IC50 in the TZM-bl neutralization assay [46]: 1.68 µg/mL | IC50 in the TZM-bl neutralization assay [47]: 0.696 µg/mL

10-1074 (antibody)
IC50 (TZM-bl neutralization) [1]: 0.03 µg/mL | IC80 (TZM-bl neutralization) [2]: 14.9 µg/mL | IC50 in the TZM-bl neutralization assay [27]: 0.048 µg/mL | IC50 in the TZM-bl neutralization assay [28]: 0.398 µg/mL | IC50 (TZM-bl neutralization) [29]: 0.06 µg/mL | IC50 in the TZM-bl neutralization assay [30]: 0.16 µg/mL | IC50 (TZM-bl neutralization) [3]: > 50 µg/mL | IC50 in the TZM-bl neutralization assay [31]: 14.9 µg/mL | IC80 (TZM-bl neutralization) [4]: > 50 µg/mL | IC80 (TZM-bl neutralization) [5]: 0.101 µg/mL | IC50 in the TZM-bl neutralization assay [32]: 2.37 µg/mL | IC50 in the TZM-bl neutralization assay [33]: 0.425 µg/mL | IC80 (TZM-bl neutralization) [6]: > 50 µg/mL | IC80 (TZM-bl neutralization) [7]: 0.367 µg/mL | IC80 (TZM-bl neutralization) [8]: 0.005 µg/mL | IC80 (TZM-bl neutralization) [9]: > 50 µg/mL | IC50 in the TZM-bl neutralization assay [34]: 0.166 µg/mL | IC50 in the TZM-bl neutralization assay [35]: 0.138 µg/mL | IC50 in the TZM-bl neutralization assay [36]: > 50 µg/mL | IC50 in the TZM-bl neutralization assay [37]: 5.83 µg/mL | IC50 (TZM-bl neutralization) [10]: 0.003 µg/mL | IC80 (TZM-bl neutralization) [11]: 0.021 µg/mL | IC50 (TZM-bl neutralization) [12]: > 50 µg/mL | IC80 (TZM-bl neutralization) [13]: > 50 µg/mL | IC50 (TZM-bl neutralization) [14]: 0.121 µg/mL | IC50 in the TZM-bl neutralization assay [38]: > 50 µg/mL | IC50 in the TZM-bl neutralization assay [39]: 13.1 µg/mL | IC80 (TZM-bl neutralization) [15]: 0.186 µg/mL | IC50 in the TZM-bl neutralization assay [40]: 13.3 µg/mL | IC50 (TZM-bl neutralization) [16]: 50 µg/mL | IC50 in the TZM-bl neutralization assay [41]: 18.3 µg/mL | IC50 in the TZM-bl neutralization assay [42]: 7.39 µg/mL | IC50 (TZM-bl neutralization) [17]: > 50 µg/mL | IC80 (TZM-bl neutralization) [18]: > 50 µg/mL | IC50 in the TZM-bl neutralization assay [43]: 0.349 µg/mL | IC80 (TZM-bl neutralization) [19]: 0.425 µg/mL | IC50 (TZM-bl neutralization) [20]: 0.045 µg/mL | IC50 (TZM-bl neutralization) [21]: 0.016 µg/mL | IC80 (TZM-bl neutralization) [22]: 0.017 µg/mL | IC50 (TZM-bl neutralization) [23]: > 50 µg/mL | IC50 in the TZM-bl neutralization assay [44]: 0.367 µg/mL | IC50 in the TZM-bl neutralization assay [45]: 4.7 µg/mL | IC50 (TZM-bl neutralization) [24]: > 50 µg/mL | IC50 (TZM-bl neutralization) [25]: 0.011 µg/mL | IC80 (TZM-bl neutralization) [26]: 0.261 µg/mL | IC50 in the TZM-bl neutralization assay [46]: 0.163 µg/mL | IC50 in the TZM-bl neutralization assay [47]: 0.563 µg/mL
